Experimental findings from paper PMC3163529 are described below.

pKd: −log10 of the molar value.

The target in the assay is recombinant human PKA catalytic subunit Cα2 (human) (UniProt P17612). Briefly: SPR; C subunits amine-coupled to CM5 chip (about 300 RU), R subunits injected at 30 μl/min; 25°C; 20 mM MOPS pH 7, 150 mM NaCl, 1 mM ATP, 5 mM MgCl2, 50 μM EDTA, 0.005% P20; Langmuir 1:1 model; Biacore 2000 or 3000. On the technique in general: Surface plasmon resonance follows binding to a sensor surface in real time, without labels.

By pKd is commonly meant the negative decadic logarithm of the Kd, by convention in mol/L. As usually defined, the kon is the second-order rate constant of association.

For “recombinant human PKA regulatory subunit RIIβ (from UniProt P31323 1-418) (natural protein; other documents disagree on this pair)”, the pKd was 9.05 and the kon is 900000 M⁻¹ s⁻¹.
